Article doi:10.1101/2025.04.19.649678
Read-outs that look alike come from different tables or passages of the source.

What was measured:
GPR3-BRIL fusion protein [1] = molecular target: GPR3-BRIL fusion protein (UniProt P46089); assay: cryo-EM structure
GPR3-BRIL fusion protein [2] = molecular target: GPR3-BRIL fusion protein (UniProt P46089); assay: cryo-EM structure; remark: listed apart in the source

stoichiometry N (GPR3-BRIL fusion protein [1]): 2
stoichiometry N (GPR3-BRIL fusion protein [2]): 2
Substance: GPR3-BRIL fusion protein (from UniProt P46089 1-222; P46089 240-330) (receptor)
